The target in the series is His-P10 outer capsid protein (Rice black-streaked dwarf virus (RBSDV), UniProt D2Y4Q6 1-558). The series can be described thus: ELONA. The conditions noted are these: protein: recombinant; tags: N-terminal 6xHis (pET-15b).

B1: F17 (ssDNA)
DNA: TGACACCGTACCTGCTCTGCCGTAGTGATCCTCCTTAACAGTGACCTATAGATCGTTCGTCGTATTTGCTTTGACAATCCTTCTCAGATACTCTCCCGAAGCACGCCAGGGACTAT
In the case of B1, the binding signal turned out to be 7.55 A450 ratio P10/BSA.

B2: R13 (ssDNA)
DNA: ATAGTCCCTGGCGTGCTTGCATGCTTGGCCCTGCACCGCCTTCGGTCTTTCGCCGACCTCGTCGTTTATTCTATCGGGTTATAAGGATAATGCGGGGTAGAGCAGGTACGGTGTCA
In the case of B2, the binding signal was found to be 1.26 A450 ratio P10/BSA.

For the origin of these results see paper PMC7692627.
